B1: αT-catenin head region (aa1-659) (domain or fragment, M. musculus, UniProt Q65CL1 1-659, looked up)
chain: MSAETPITLNMDTQDLQIQTFTVEKLLEPLIIQVTTLVNCPQNPSNRKKGRSKRARVLLASVEEATWNLLDKGEMIAKEATVLKEELAAALQEVRKESKALKVSAERFTDDPCYLPKREAVVQAARALLAAVTRLLVLADMIDVMCLLQHVSSFQRTFESLKNVSNKSDLQRTYQKLGKELESLDYLAFKRQQDLKSPSQRDEIAGARATLKENSPLLHSICSACLEHSDVASLKASKDTVCEEIQNALDVISNASQGIQNAPAPPEPQAATLGSAFDELENLIVLNPLTVTEEDVRPSLEKRLEAIISGAALLADSSCTRDLHRERIIAECNAIRQALQDLLTEYMSNTGKTERSNTLNTAIVNMSKKTRDLRRQLRKAIIDHISDSFLDTTVPLLVLIEAAKNGRVKEIKDYAAIFHEHTGRLVEVANLACSMSTNEDGIKIVRIAANHLETLCPQIINAALALASRPKSQVVKNTMEMYKRTWEHYIHVLTEAVDDITSIDDFLAVSESHILEDVNKCIIALRDQDADNLDRAAGAIRGRAARVAHIVAGEMDSYEPGAYTEGVMRNVNFLTSTVIPEFVTQVNVALDALSKNSLTALDDNQFVDISKKIYDTIHDIRCSVMMIRTPEELEDVSDLEDDHEVRSHTSIQTEGKTDR

In one data set the target is T1, β-catenin (M. musculus, UniProt Q02248 1-781).
T1 sequence (looked up): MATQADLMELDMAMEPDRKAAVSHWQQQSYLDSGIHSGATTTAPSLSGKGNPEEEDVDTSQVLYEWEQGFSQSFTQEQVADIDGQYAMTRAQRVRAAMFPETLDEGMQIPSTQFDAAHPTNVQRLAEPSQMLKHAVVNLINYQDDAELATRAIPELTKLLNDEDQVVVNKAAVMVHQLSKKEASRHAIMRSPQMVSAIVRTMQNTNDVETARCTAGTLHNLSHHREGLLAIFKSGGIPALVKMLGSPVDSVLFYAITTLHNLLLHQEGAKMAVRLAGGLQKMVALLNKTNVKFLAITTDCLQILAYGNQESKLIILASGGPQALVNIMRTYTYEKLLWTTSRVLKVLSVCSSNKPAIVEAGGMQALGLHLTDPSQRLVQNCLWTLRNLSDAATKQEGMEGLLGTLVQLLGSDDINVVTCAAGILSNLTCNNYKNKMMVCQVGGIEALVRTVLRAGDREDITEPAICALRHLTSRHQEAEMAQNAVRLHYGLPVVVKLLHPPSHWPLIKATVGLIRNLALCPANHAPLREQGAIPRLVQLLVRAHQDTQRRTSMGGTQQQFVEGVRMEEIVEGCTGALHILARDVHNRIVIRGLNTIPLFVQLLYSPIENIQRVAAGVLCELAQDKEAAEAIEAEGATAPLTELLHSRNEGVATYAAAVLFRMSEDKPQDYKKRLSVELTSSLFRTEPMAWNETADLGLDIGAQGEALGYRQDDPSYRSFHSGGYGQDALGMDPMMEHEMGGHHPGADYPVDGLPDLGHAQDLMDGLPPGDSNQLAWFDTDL
Nature of the data set: ITC.

Data set [1] concerns the target T2, β-catenin•N-cadherin cytoplasmic tail complex (M. musculus | , UniProt Q02248 1-781; P15116 746-906).
T2 sequence (looked up) 1: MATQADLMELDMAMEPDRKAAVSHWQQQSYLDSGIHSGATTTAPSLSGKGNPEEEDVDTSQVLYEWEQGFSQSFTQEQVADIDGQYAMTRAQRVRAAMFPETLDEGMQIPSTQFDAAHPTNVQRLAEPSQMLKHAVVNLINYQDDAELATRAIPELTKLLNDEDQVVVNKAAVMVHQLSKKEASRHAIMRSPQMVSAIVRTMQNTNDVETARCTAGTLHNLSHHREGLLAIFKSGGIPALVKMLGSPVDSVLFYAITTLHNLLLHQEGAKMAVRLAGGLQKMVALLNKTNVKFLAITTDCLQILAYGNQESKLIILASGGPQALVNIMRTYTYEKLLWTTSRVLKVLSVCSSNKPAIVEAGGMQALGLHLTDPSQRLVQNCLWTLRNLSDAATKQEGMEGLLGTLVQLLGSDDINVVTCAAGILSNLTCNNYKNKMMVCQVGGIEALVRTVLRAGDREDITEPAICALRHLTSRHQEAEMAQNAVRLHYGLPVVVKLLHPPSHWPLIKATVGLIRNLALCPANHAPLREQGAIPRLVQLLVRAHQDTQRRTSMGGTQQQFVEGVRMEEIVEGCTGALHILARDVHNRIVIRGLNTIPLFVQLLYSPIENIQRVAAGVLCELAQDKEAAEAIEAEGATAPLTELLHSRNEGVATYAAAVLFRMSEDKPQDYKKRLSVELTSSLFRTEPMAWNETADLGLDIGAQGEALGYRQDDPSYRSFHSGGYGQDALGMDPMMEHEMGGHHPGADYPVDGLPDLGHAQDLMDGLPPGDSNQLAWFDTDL
T2 sequence (looked up) 2: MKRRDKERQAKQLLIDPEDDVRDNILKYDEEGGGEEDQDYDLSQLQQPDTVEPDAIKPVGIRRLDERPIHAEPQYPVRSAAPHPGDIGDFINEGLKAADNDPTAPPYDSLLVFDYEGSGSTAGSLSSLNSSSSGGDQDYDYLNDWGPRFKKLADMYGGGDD
Nature of the data set: ITC.

The data set “SEC” concerns the molecule itself. The data set is described as follows: SEC.
In data set [2] the target is T3, αT-catenin M1-M3 (aa260-626) (M. musculus, UniProt Q65CL1 260-626).
T3 sequence (looked up): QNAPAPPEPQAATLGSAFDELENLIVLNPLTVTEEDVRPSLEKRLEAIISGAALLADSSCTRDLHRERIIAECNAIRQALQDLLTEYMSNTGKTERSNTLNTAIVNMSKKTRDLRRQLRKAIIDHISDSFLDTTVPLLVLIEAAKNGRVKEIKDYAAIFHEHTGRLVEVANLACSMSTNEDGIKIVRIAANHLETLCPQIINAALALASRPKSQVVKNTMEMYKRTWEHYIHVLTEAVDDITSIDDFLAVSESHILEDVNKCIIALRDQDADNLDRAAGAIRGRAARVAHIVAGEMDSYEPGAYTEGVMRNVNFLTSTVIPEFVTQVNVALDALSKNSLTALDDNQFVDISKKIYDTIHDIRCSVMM
The data set is described as follows: ITC.

In data set [3] the target is T4, 2I27-αT-catenin M1-M3(aa259-667)-2I27 (UniProt Q65CL1).
T4 sequence (Q9UI47 whole entry, species assumed, looked up): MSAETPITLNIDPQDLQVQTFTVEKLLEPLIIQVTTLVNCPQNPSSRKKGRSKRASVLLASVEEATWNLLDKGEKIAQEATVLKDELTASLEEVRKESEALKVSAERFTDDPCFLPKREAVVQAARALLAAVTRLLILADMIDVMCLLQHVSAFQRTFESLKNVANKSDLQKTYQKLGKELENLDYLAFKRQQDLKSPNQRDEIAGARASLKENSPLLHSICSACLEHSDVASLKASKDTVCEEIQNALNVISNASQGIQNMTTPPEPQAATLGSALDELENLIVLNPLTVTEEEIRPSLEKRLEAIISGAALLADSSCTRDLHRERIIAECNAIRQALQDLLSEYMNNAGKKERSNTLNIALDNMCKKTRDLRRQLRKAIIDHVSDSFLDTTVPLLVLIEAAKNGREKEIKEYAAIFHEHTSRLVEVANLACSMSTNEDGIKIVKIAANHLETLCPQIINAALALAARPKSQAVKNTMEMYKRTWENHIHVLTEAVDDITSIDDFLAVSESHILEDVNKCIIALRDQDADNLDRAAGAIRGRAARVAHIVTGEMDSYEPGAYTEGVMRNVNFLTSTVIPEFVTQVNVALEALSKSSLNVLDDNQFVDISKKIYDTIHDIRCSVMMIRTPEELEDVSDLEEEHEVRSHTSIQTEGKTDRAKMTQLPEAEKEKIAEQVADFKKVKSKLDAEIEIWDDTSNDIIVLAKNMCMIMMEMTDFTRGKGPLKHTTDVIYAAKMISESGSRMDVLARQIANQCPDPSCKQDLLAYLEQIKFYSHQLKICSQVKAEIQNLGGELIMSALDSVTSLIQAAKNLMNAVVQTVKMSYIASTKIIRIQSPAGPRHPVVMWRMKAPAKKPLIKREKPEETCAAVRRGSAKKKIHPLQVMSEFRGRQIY
The data set is described as follows: ITC.

Data set [4] concerns the target T5, αT-catenin N2-M3 (aa147-626) (M. musculus, UniProt Q65CL1 147-626).
T5 sequence (looked up): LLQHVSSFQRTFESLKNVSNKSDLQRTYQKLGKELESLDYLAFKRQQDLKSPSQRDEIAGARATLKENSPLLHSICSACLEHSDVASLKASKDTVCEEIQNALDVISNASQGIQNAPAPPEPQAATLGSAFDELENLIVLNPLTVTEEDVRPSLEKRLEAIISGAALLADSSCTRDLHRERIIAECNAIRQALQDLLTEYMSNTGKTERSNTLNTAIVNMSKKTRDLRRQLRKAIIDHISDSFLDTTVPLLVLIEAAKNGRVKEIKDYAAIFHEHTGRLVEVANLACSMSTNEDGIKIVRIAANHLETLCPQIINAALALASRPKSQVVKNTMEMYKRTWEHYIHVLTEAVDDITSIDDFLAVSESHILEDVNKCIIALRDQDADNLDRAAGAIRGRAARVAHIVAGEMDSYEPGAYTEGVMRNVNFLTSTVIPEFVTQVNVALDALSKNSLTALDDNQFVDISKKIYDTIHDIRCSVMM
Nature of the data set: ITC.

Data set [5] deals with B1. Nature of the data set: ITC.
Data set [6] addresses T6, αT-catenin head•β-catenin complex (M. musculus, UniProt Q65CL1 1-659; Q02248 1-781).
T6 sequence (looked up) 1: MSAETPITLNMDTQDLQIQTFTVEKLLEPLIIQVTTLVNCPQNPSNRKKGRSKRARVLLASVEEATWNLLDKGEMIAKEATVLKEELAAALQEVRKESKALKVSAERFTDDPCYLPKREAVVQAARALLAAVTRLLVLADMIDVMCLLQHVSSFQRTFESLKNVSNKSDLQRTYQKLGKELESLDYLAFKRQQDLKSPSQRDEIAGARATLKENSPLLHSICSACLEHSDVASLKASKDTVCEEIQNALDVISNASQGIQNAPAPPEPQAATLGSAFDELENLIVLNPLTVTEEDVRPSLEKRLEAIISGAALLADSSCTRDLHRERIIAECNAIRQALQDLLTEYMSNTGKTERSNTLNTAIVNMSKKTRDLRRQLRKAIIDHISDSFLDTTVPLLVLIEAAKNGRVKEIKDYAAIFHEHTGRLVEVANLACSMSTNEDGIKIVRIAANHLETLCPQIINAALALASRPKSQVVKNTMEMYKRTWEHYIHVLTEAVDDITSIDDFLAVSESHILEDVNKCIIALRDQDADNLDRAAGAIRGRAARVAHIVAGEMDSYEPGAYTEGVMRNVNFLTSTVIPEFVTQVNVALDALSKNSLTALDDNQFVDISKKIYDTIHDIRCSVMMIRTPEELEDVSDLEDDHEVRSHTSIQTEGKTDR
T6 sequence (looked up) 2: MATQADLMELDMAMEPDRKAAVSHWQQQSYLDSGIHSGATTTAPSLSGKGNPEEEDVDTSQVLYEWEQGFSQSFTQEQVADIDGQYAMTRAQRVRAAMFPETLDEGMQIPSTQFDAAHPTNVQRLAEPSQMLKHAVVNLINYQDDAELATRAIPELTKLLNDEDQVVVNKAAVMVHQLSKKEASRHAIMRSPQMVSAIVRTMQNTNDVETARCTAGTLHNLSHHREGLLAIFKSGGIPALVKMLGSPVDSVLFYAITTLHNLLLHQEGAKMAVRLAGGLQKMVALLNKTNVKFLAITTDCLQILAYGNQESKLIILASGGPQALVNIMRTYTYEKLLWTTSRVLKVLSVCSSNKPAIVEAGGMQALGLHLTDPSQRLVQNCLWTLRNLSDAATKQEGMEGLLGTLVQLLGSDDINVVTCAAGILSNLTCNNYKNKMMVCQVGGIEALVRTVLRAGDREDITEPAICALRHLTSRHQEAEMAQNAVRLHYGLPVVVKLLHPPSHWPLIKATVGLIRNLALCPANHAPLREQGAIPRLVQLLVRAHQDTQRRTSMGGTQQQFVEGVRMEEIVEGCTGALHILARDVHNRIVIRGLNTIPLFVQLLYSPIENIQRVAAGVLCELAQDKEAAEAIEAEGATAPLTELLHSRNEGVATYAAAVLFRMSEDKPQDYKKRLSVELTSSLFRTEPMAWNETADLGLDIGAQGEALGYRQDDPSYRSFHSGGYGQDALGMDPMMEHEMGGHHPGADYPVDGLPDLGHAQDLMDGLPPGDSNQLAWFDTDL
The data set is described as follows: ITC.

In the case of B1, the results for the Kd (with β-catenin; in data set [1]) were roughly 250 nM and 5 to 6 nM, respectively.

B2: αT-catenin V94D N1-N2 (domain or fragment, M. musculus, UniProt Q65CL1 1-259, looked up)
chain: MSAETPITLNMDTQDLQIQTFTVEKLLEPLIIQVTTLVNCPQNPSNRKKGRSKRARVLLASVEEATWNLLDKGEMIAKEATVLKEELAAALQEDRKESKALKVSAERFTDDPCYLPKREAVVQAARALLAAVTRLLVLADMIDVMCLLQHVSSFQRTFESLKNVSNKSDLQRTYQKLGKELESLDYLAFKRQQDLKSPSQRDEIAGARATLKENSPLLHSICSACLEHSDVASLKASKDTVCEEIQNALDVISNASQGI
For the molecule B2, the “stoichiometry N” value in the data set “SEC” is 2.

B3: αT-catenin N1-N2 (aa1-259) (domain or fragment, M. musculus, UniProt Q65CL1 1-259, looked up)
chain: MSAETPITLNMDTQDLQIQTFTVEKLLEPLIIQVTTLVNCPQNPSNRKKGRSKRARVLLASVEEATWNLLDKGEMIAKEATVLKEELAAALQEVRKESKALKVSAERFTDDPCYLPKREAVVQAARALLAAVTRLLVLADMIDVMCLLQHVSSFQRTFESLKNVSNKSDLQRTYQKLGKELESLDYLAFKRQQDLKSPSQRDEIAGARATLKENSPLLHSICSACLEHSDVASLKASKDTVCEEIQNALDVISNASQGI
In turn, B3 gave a Kd in data set [1] of 7 nM.

B4: vinculin D1 (aa1-259) (domain or fragment, UniProt P12003 1-259, looked up)
chain: MPVFHTRTIESILEPVAQQISHLVIMHEEGEVDGKAIPDLTAPVSAVQAAVSNLVRVGKETVQTTEDQILKRDMPPAFIKVENACTKLVRAAQMLQADPYSVPARDYLIDGSRGILSGTSDLLLTFDEAEVRKIIRVCKGILEYLTVAEVVETMEDLVTYTKNLGPGMTKMAKMIDERQQELTHQEHRVMLVNSMNTVKELLPVLISAMKIFVTTKNTKSQGIEEALKNRNFTVEKMSAEINEIIRVLQLTSWDEDAWA
For B4, the Kd in data set [2] was 50 nM; in data set [3], 250 nM; in data set [4] it was 50 nM; in data set [5] it was roughly 5000 nM; in data set [6], roughly 3000 nM.
